*1 amine or outer side, *2 acyl side, *3 side chain or, on linkers, in order; H or OH if unused. Where no end group is shown, it is not given here. Side-chain parts run from the residue outwards. [ ]: non-standard residue; d: D form. The star is where a group is joined. C18 diacid = O=C(O)CCCCCCCCCCCCCCCCC(=O)*; γGlu = O=C(O)[C@H](CCC(=O)[*:2])N[*:1]; AEEA = NCCOCCOCC(=O)O; Aib = CC(C)(N)C(=O)O
Assays:
Assay in all cases: cell-based or functional assay
[1] = molecular target: T1, Human N-terminally SNAP-tagged GIPR (human, UniProt P48546 22-466, SNAP tag labeled with Tag-Lite SNAP-Lumi4-Tb)
T1 sequence (looked up): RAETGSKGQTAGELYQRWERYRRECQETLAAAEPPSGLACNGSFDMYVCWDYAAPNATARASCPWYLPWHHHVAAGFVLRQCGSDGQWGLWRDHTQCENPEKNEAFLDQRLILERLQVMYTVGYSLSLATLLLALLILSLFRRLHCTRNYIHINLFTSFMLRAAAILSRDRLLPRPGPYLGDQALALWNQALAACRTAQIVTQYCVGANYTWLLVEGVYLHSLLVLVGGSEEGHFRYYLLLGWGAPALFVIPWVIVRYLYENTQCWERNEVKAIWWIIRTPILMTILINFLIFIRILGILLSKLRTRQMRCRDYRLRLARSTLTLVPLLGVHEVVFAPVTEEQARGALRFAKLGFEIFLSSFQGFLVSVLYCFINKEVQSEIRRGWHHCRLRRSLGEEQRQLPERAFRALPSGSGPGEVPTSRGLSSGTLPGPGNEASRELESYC

[2] = molecular target: T2, human GIPR (glucose-dependent insulinotropic polypeptide receptor) (human, UniProt P48546 22-466)
T2 sequence (looked up): T1 sequence (looked up)

[3] = molecular target: human glucagon receptor (GCGR) (human, UniProt P47871 26-477, limits assumed)
human glucagon receptor (GCGR), sequence (P47871 26-477 limits assumed): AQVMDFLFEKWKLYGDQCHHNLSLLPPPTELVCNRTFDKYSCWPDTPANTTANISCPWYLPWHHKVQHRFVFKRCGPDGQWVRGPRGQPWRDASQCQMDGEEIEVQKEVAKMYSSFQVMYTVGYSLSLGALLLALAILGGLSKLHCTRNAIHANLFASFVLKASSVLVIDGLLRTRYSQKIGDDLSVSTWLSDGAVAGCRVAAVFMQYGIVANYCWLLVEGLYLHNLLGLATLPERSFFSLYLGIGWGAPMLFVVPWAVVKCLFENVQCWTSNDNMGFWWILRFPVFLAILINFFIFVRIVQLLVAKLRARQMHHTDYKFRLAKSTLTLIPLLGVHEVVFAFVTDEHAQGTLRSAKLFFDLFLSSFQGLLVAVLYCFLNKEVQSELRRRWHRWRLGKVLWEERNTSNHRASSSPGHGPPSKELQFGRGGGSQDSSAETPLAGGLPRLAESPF

[4] = molecular target: T3, human GLP-2R (glucagon-like peptide-2 receptor) (human, UniProt O95838 1-553)
T3 sequence (looked up): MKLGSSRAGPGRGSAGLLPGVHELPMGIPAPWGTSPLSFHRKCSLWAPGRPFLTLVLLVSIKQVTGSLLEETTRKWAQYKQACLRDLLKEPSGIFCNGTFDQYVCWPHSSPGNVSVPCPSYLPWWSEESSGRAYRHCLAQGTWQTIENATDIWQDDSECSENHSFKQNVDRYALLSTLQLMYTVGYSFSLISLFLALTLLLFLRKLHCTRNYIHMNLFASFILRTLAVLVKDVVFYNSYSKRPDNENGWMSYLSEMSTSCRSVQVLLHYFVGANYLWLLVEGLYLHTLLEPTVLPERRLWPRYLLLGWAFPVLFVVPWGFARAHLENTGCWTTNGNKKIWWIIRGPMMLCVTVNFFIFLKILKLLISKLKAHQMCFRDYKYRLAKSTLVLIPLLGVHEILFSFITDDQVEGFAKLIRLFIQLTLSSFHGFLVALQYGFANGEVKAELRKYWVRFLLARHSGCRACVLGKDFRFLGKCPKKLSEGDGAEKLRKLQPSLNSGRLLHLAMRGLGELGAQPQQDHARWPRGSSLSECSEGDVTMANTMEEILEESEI

[5] = molecular target: human GLP-1R (glucagon-like peptide-1 receptor) (human, UniProt P43220 24-463)
[6] = molecular target: T4, human SNAP-tagged GLP-2R (human, UniProt O95838 1-553, SNAP tag labeled with Tag-Lite SNAP-Lumi4-Tb)
T4 sequence (looked up): T3 sequence (looked up)

[7] = molecular target: human SNAP-tagged GLP-1R (human, UniProt P43220 24-463, SNAP tag labeled with Tag-Lite SNAP-Lumi4-Tb)

- Absolute hGIPR internalization (AUC) [1]: 21.7 AUC
- Relative hGIPR internalization (%) [1]: 59%
- EC50 (nM) GIPR [2]: 0.071 nM
- Efficacy GIPR [2]: 119
- pEC50 GIPR [2]: 10.2
- potency in Gs activation, measured as cAMP accumulation (-p Log EC50) [3]: < 7 -p Log EC50
- Efficacy GLP-2R [4]: 89
- logEC50 GLP-2R [4]: 8.7
- EC50 (nM) GLP-1R [5]: 3.98 nM
- Efficacy GLP-1R [5]: 102
- logEC50 GLP-1R [5]: 8.4
- Absolute hGLP-2R internalization (AUC) [6]: 12 AUC
- Relative hGLP-2R internalization (%) [6]: 24.8%
- Absolute hGLP-1R internalization (AUC) [7]: 0.96 AUC
- Relative hGLP-1R internalization (%) [7]: 1.14%
Binder: H[Aib]DGTFISDYSTILDALAARDFINWLIQTKITK([AEEA-AEEA-γGlu-C18 diacid])-OH [Compound 28]

From patent publication US20250304644A1, “PEPTIDES TRIPLE AGONISTS OF GIP, GLP-1 AND GLP-2” (BAINAN BIOTECH APS, priority 2021, published 2025)
